Here are results for 3 substances from PMC11919277.

What all share (assay): co-immunoprecipitation (anti-HA agarose beads), western blot, ImageJ densitometry
What all share (conditions): three independent experiments; parent: est. 0.97; read off a plot

Assay [1] concerns the target WT-Clocka, FLAG-tagged (zebrafish Clocka, wild type).
The target of assay [2] is Bmal1a-mut, HA-tagged (zebrafish Bmal1a with the four cetacean-specific BMAL1 mutations).
The target in assay [3] is WT-Bmal1a, HA-tagged (zebrafish Bmal1a, wild type).

Consider “WT-Bmal1a, HA-tagged (zebrafish Bmal1a, wild type) D3E; L456P; H461R; M466T”, for which the ratio to parent in assay [1] came out at 1.2.

As to “m1; m3 Clocka: M724V; S752P; T779A; Bmal1a: D3E; L456P; H461R; M466T”, the ratio to parent in assay [2] came out at 1.6.

Consider “WT-Clocka, FLAG-tagged (zebrafish Clocka, wild type) M724V; S752P; T779A”, for which, in assay [3], the ratio to parent turned out to be 1.6.
